Test results from PMC5657617, “The GYF domain protein PSIG1 dampens the induction of cell death during plant-pathogen interactions” (PLoS Genetics, 2017).

B1: HisMBP-SMG7-C (domain or fragment, Arabidopsis thaliana, UniProt A9QM73 549-1059, looked up)
chain: PKEKKARIKRIFAAGKALTSVIKVDQNHVYFDSKKKKFLVGVKPADDFLDSHSSPPKACNALQDNQVMIDHNSPIMQLDQQIYMGEEDDDDEVIVFKPLVTEKRKEASDQIYVPSGGFRKSDQVTTMGDFKALSGSDVAFHENQILQARGNASIQVPASVGANLLGPLQPSTQSQAMHMQQVQTQVQVPASVGANLLGLLLTSTQSQAMHMQQVQTQAVNPQPAQSLAASRLQPIQSQVAQPLPSRVVHFQQTQAQVSHVSPAHSQSTSFGGGSKWSPEEAASLASSLSGFAQLGNGHVMRNEMQGNHGVSYYPAHSLPVHQSYNGNGMGGMPYSQSRTPEAVFPPKIDPVLSSGVVADGLGVQSSLAKKNPISRAFRHLGPPPGFNSVPAKLQKEPAPGSELSGNNHLPVDDYSWLDGYQAQSSRGVGLNSSLNYATSGKPEHLGSTGNGLNGPANFPFPGKQVPTSQVQADFPYFQNPQKDNFVDKNHQSTQLPEQYQGQSTWSSRHFV
notes: also called AtSMG7-C (549-1059); C-terminal half of SMG7; source: Escherichia coli Rosetta-gami 2 (DE3), purified (Dextrin-Sepharose)
B2: HisMBP-SMG7 (natural protein, Arabidopsis thaliana, UniProt A9QM73 1-1059, looked up)
chain: MMTLQMDKTTASSSWERAKSIYDEIAELANKRQKAGNPPDPNLLQLLREKYEAIILESHTFSEQHNIEIPLWQLHYKRIEYFRLHINRVLASSTSTAAQNVKGPSKAEQIAQLKLQFRTFLSEATGFYHDMILKIRSKYGLPLGSFSEDQQSQNLSDKDGKELAEVQKALKSCHRCLIYLGDLARYKGMYAEGDSRSRQYASASSYYLQAASLWPASGNPHHQLAIVASYSRDEFVTTYRYFRSLAVEYPFPTARDNLIVAFDKNRQSYEKLFVPSKDSSKRLTGKGRGKGADISLKDATLVAGPEKDKVTIANEMLKAFSIRFVHLNGILFTRTSLETFFDVLASTSSSLREVISLGSAKELTLGIDTSDSALFIVRVVTMLIFSVHNSKKETEGQSYAEIVQRVEPARNSLTASFELLGLVIEKCVQLGDPSSSYFLPGVLVFVEWLACCPDIALGSDPDDRQTAVRNSFWNQFVVFFNQVLSLGPTFIDDVEDETCFSNMSLYDERETENRLALWEDYELRGFLPLLPAQTILNFSRKHSFGTEGPKEKKARIKRIFAAGKALTSVIKVDQNHVYFDSKKKKFLVGVKPADDFLDSHSSPPKACNALQDNQVMIDHNSPIMQLDQQIYMGEEDDDDEVIVFKPLVTEKRKEASDQIYVPSGGFRKSDQVTTMGDFKALSGSDVAFHENQILQARGNASIQVPASVGANLLGPLQPSTQSQAMHMQQVQTQVQVPASVGANLLGLLLTSTQSQAMHMQQVQTQAVNPQPAQSLAASRLQPIQSQVAQPLPSRVVHFQQTQAQVSHVSPAHSQSTSFGGGSKWSPEEAASLASSLSGFAQLGNGHVMRNEMQGNHGVSYYPAHSLPVHQSYNGNGMGGMPYSQSRTPEAVFPPKIDPVLSSGVVADGLGVQSSLAKKNPISRAFRHLGPPPGFNSVPAKLQKEPAPGSELSGNNHLPVDDYSWLDGYQAQSSRGVGLNSSLNYATSGKPEHLGSTGNGLNGPANFPFPGKQVPTSQVQADFPYFQNPQKDNFVDKNHQSTQLPEQYQGQSTWSSRHFV
notes: SMG7, Arabidopsis thaliana, At5g19400; open reading frame amplified from Arabidopsis seedling (Col-8) cDNA; residues 1-1059 by the limits of its two halves; also called AtSMG7; HisMBP-tagged SMG7; source: Escherichia coli Rosetta-gami 2 (DE3), purified (Dextrin-Sepharose)
B3: GST-PSIG1^1-606 (domain or fragment)
chain: not shown
notes: PSIG1, Arabidopsis thaliana, At5g42950, residues 1-606, with the GYF domain and without its own PPGF motif; Vector pGEX4T-3; source: Escherichia coli Rosetta-gami 2 (DE3), purified (Glutathione-Sepharose)

Experiments:
[1] = biological target: T1, GST-PSIG1 (PLANT SMY2-TYPE ILE-GYF DOMAIN-CONTAINING PROTEIN 1, full length) (Arabidopsis thaliana, UniProt Q9FMM3 1-1714); experiment: pull-down; GST-PSIG1 proteins and HisMBP-SMG7 proteins mixed in 50 mM Tris-HCl pH 7.5, 150 mM NaCl, 1 mM DTT, 0.1% Triton X-100; Glutathione-Sepharose beads, 2 h at 4°C; washed three times with 300 mM NaCl buffer; detected by anti-His or anti-GST immunoblot or CBB; conditions: both partners purified
T1 construct: PSIG1 (EXA1/MUSE11), Arabidopsis thaliana, At5g42950; whole ORF cloned into pGEX4T-3; the text calls it full-length PSIG1; Vector pGEX4T-3, cloned between SalI and NotI sites; also called GST-tagged PSIG1; EXA1; source: Escherichia coli Rosetta-gami 2 (DE3), purified (Glutathione-Sepharose)
T1 sequence (Q9FMM3 whole entry, the tested form may be a part): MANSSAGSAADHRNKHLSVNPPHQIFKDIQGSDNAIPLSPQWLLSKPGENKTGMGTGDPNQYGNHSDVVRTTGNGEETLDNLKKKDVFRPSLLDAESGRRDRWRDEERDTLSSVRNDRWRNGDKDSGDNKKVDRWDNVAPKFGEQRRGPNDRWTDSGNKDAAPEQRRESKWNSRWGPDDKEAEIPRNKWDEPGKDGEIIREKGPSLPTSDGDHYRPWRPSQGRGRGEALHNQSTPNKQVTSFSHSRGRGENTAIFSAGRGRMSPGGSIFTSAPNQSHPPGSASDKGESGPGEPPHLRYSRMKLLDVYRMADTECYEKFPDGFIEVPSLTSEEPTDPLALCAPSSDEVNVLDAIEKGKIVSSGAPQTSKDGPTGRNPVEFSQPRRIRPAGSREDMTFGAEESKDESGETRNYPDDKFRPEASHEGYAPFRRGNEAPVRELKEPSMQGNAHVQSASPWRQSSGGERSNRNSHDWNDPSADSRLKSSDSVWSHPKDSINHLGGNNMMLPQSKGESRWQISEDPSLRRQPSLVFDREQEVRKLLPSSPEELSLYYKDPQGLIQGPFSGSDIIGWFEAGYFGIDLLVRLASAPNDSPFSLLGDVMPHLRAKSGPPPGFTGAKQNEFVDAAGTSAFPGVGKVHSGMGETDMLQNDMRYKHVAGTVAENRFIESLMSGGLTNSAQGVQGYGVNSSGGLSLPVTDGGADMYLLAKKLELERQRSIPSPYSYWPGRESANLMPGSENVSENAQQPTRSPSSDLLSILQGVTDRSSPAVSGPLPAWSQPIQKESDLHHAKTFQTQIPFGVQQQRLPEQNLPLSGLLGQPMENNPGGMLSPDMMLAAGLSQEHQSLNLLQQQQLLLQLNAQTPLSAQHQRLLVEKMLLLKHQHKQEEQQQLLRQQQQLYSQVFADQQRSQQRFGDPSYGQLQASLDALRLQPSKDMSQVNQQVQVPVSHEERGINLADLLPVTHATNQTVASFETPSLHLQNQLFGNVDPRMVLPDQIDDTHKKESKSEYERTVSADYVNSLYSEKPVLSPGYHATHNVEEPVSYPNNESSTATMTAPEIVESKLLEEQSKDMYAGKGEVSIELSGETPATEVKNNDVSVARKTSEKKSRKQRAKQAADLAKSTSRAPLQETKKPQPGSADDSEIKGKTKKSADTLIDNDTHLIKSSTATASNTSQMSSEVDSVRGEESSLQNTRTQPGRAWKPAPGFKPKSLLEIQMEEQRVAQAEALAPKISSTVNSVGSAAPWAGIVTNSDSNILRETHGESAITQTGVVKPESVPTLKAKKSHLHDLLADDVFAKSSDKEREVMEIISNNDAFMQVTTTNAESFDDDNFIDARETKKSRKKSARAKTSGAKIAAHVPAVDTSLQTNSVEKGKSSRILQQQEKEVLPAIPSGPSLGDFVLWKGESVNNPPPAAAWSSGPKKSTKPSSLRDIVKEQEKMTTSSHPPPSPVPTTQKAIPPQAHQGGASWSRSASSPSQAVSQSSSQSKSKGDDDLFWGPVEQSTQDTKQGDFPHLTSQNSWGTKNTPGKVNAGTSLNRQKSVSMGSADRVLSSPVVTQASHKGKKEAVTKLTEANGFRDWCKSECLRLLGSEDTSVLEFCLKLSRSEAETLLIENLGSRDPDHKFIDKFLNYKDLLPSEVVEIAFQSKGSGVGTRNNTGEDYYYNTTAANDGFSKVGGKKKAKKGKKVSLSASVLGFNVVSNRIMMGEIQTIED

HisMBP-SMG7 = biological target: B2; experiment: as above; conditions: both partners purified

binding result [1] | binding result (HisMBP-SMG7) | Binder
binds | – | B1
binds | – | B2
– | binds | B3
